B1: Kinesin-like protein KIF17 (Homo sapiens), Q9P2E2 (parent)
chain: MASEAVKVVVRCRPMNQRERELRCQPVVTVDCARAQCCIQNPGAADEPPKQFTFDGAYHVDHVTEQIYNEIAYPLVEGVTEGYNGTIFAYGQTGSGKSFTMQGLPDPPSQRGIIPRAFEHVFESVQCAENTKFLVRASYLEIYNEDVRDLLGADTKQKLELKEHPEKGVYVKGLSMHTVHSVAQCEHIMETGWKNRSVGYTLMNKDSSRSHSIFTISIEMSAVDERGKDHLRAGKLNLVDLAGSERQSKTGATGERLKEATKINLSLSALGNVISALVDGRCKHVPYRDSKLTRLLQDSLGGNTKTLMVACLSPADNNYDETLSTLRYANRAKNIRNKPRINEDPKDALLREYQEEIKKLKAILTQQMSPSSLSALLSRQVPPDPVQVEEKLLPQPVIQHDVEAEKQLIREEYEERLARLKADYKAEQESRARLEEDITAMRNSYDVRLSTLEENLRKETEAVLQVGVLYKAEVMSRAEFASSAEYPPAFQYETVVKPKVFSTTDTLPSDDVSKTQVSSRFAELPKVEPSKSEISLGSSESSSLEETSVSEAFPGPEEPSNVEVSMPTEESRSRYFLDECLGQEAAGHLLGEQNYLPQEEPQEVPLQGLLGLQDPFAEVEAKLARLSSTVARTDAPQADVPKVPVQVPAPTDLLEPSDARPEAEAADDFPPRPEVDLASEVALEVVRTAEPGVWLEAQAPVALVAQPEPLPATAGVKRESVGMEVAVLTDDPLPVVDQQQVLARLQLLEQQVVGGEQAKNKDLKEKHKRRKRYADERRKQLVAALQNSDEDSGDWVLLNVYDSIQEEVRAKSKLLEKMQRKLRAAEVEIKDLQSEFQLEKIDYLATIRRQERDSMLLQQLLEQVQPLIRRDCNYSNLEKILRESCWDEDNGFWKIPHPVITKTSLPVAVSTGPQNKPARKTSAADNGEPNMEDDRYRLMLSRSNSENIASNYFRSKRASQILSTDARKSLTHHNSPPGLSCPLSNNSAIPPTQAPEMPQPRPFRLESLDIPFTKAKRKKSKSNFGSEPL

Variants of: B1
Settings: with tnpo1_human TNPO1, Q92973
Sequence of tnpo1_human TNPO1, Q92973 (Q92973 whole entry): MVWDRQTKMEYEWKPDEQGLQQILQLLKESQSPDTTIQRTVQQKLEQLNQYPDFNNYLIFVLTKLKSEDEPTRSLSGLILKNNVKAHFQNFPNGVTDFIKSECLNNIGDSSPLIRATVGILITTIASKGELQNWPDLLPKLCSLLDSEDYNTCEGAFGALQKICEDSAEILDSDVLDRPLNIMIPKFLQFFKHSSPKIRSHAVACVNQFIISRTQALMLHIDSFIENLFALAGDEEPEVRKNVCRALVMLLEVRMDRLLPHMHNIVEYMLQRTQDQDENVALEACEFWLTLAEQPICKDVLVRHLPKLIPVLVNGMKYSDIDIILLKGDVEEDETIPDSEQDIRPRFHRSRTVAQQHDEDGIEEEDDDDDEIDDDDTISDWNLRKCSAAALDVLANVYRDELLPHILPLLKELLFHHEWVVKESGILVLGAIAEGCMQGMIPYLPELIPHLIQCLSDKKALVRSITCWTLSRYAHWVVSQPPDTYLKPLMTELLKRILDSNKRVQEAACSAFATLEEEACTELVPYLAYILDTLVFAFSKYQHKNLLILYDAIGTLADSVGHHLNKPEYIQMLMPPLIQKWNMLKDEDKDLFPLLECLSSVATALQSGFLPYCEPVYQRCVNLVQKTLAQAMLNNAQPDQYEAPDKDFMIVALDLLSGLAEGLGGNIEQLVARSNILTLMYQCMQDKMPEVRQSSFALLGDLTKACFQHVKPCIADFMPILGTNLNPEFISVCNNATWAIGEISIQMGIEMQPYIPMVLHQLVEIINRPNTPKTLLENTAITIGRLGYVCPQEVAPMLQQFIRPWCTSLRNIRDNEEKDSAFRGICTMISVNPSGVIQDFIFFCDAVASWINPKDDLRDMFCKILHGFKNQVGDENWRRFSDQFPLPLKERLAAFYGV

| effect of a mutation on the interaction | Variant |
| --- | --- |
| disrupting interaction strength | K1016A;R1017A;K1018A;K1019A |

Source: IntAct's records for PubMed 20526328
